# Measured values from the supplement of paper PMC9170038.
# Test system: MS2 coat protein
# Assay: apparent KD of MS2 coat protein; higher = weaker reporter binding
# Conditions: Eterna round: R107; input ligand: theophylline 2 mM
# Description: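 RNA-MaP round R107: designed RNA switches with theophylline, tryptophan, arginine or FMN aptamers are transcribed on-chip within common flanks. They are titrated with SNAP-549-labelled MS2 coat protein in RNA-MaP buffer (100 mM Tris pH 7.5, 80 mM KCl, 4 mM MgCl2), without ligand or with the indicated ligand. Median apparent KD per design.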
row,Sequence,apparent KD of MS2 coat protein
1,AGCACUGUGACGGCCGCCACUACAUAUAGGGUGGUCAGGUUCAUAAUACAUGAGGAUCACCCAUGUAGGACCGGGUCUCAGUGCA [Omei Trp Exc B A v5],14.6 nM
2,GUCCACAGCCGAAGGAGCGCUAGAAGAUGACAUGAGGAUCACCCAUGUGUGUGAUGUGGCUAGCAGGUAGGUCGCGGAGUGGAUU [Exclusion - Arginine B (Freestyle 14)],24.8 nM
3,AACAUGAGGAUCACCCAUGUCUGAACUGAAGGAGCGCUAAAUAAGGCAGGUAGGUCGCGGAAUUUUGUGUACAUAUGUAUAUGGG [9.H],35.8 nM
4,UCGCUCUGGGUGAGAUCCGGAGAUGUGGAAGGAGCGCUGGUUCCAGCAGGUAGGUCGCCAACGGACAUGAGGAUCACCCAUGUAC [Same State - Arginine A (Freestyle 13)],70.4 nM
5,UGAUUGAACGGAAGGAGCGUGAAGAGAGAGAAACAUGAGGAUCACCCAUGUAGAGAGAGAACACAGGUAGGUCGCCGAGAGAUUG [11.B],14.7 nM
6,UCACAUGAGGAUCACCCAUGUGUCAGAGAAGGAGCGGCCGCAAGGCCAGGUAGGUCGCUCGGGUAUUGUGAGGUUCACCCGUGUG [#1 Exclusion - Arginine A Attempt #12 (Inspired by cyborg)],44.4 nM
7,AACAUGAGGAUCACCCAUGUCCUCAUGAUUCGAGGACCGGUACGGCCGCCACUCGGUCCUCGCGAGGAGGAGUCAAAGACUCCAA [Omei Trp A SS A v2],968 nM
8,UGUCCUCAUGCGGCCGCCACUGUCGGCCGCCACUAAACAUGAGGAUCACCCAUGUAGGACCGGGACAGGACCGGGCAUGGGUGCU [TryBS - #DoubleAptamer],244 nM
9,CCUAUGCAGUCGGCCGCCACUGAUAAAGUUAUCUUUACCUCAGAAACAUGAGGAUCACCCAUGUACAGGACCGGGACUGUAUAGG [Ex Tryptophan B 18],15.9 nM
10,CUCCCGUGGUCGGCCGCCACUGGAGGCUUUGCGCGACAUGAGGAUCACCCAUGUGUGCCCGGCGUCAGGACCGGGAUCGCGUGAG [#1 Same State - Tryptophan B Attempt #13 (HarryS)],17.7 nM

# Same assay, conditions: Eterna round: R107; input ligand: tryptophan 2.4 mM
row,Sequence,apparent KD of MS2 coat protein
1,UCGCUCUGGGUGAAAUCCGGAGAUGUGGAAGGAGCGCUCGAAAGAGCAGGUAGGUCGCCAACGGACAUGAGGAUCACCCAUGUAC [Same State - Arginine A (Freestyle 20)],38.3 nM
2,AAAUAAAUAACUGAUACCAGUGGACUGACAUGAGGAUCACCCAUGUUGGGUUUUGUUGUCCACCCUUGGCAGCGGGCAUAUAAAA [#25 Exclusion-TheophyllineB],26.8 nM
3,GUCAGUAGAACAGAUACCAGUCAAAGGCUGUGAUCUCAUAACAUGAGGAUCACCCAUGUUGACCCUUGGCAGCUGUGGGCGAGGG [#20 Exclusion-TheophyllineB],43.7 nM
4,AUAAUAAAGUCGGCCGCCACUAUAAACAUGAGGAACAUGAGGAUCACCCAUGUAUGAGGAUCACCUAGGACCGGGACAAAUAUUA [AstrosExyTryB#3],54.7 nM
5,ACCAGGGUCUGAAGGAGCGCGAUUACAUGAGGAUCACCCAUGUGAAAUGGUAGAUGAUACUCGCAGGUAGGUCGCAGUACUUGGA [Same State Arginine B GF 14],215 nM
6,CCUCAGCAAUUGGAUACCAGUACAUCGUAAGACAUGAGGAUCACCCAUGUGGGCUUGACAUACCCUUGGCAGCCAUCCUUGAUCC [theeternabot_sameState_MS2_Theo_B_3],250 nM
7,GGCACGUACGGAAGGAGCGACUGUUCGACGUGGGUACAUGAGGAUCACCCAUGUCUCCGCAGUCAGGUAGGUCGCCGUACGUGCC [EAB NP+V+V2 #21 +-Same Structure],38.6 nM
8,UCGUGUGUUUCGGAUACCAGUGUGGUCGAUACAUGAGGAUCACCCAUGUGAGAGGAGGUACACCCUUGGCAGCUGGCUGUUGCGG [qqwmullin],77.5 nM
9,ACCGCAGGUCCUGAUACCAGAGACAUGAGGAUCACCCAUGUCCGAUCGUCCUGCCUCAGGCUCCCUUGGCAGCAGGGCUUGUCCU [Exclusion Theophylline B GF8],14.8 nM
10,GCUAGUGGCAGAAGGAGCGGCAUACUUGCAAGUGACAUGAGGAUCACCCAUGUAAGGGAAUGCCAGGUAGGUCGCUGCCACUAGC [EAB NP+V+V2 #1 +-Same Structure],28.5 nM
11,AAAGCCUUGCCCGGUGUUCCGAAAGUGGAAGGAGCGCACAUUGGUGCAGGUAGGUCGCCACAUGAGGAUCACCCAUGUCUAGGCU [Isbeat],11.3 nM
12,UCGCUCGCCGGAAGGCGAGCGAGUUGCGAUACCAGCCCGGAAACGGGCCCUUGGCAGCGCACAUGAGGAUCACCCAUGUCAUGUU [#1 Exclusion - Theophylline A Attempt #6 (HarryS)],18.3 nM
13,GAACAUAAGGAUACUAUAAUAAGUACAGAAGGAGCGAGCGGAAGCUCAGGUAGGUCGCUGGGUAACAUGAGGAUCACCCAUGUUG [SSArg A #14 Road to perfection1],15.6 nM
14,AGGAAACAACAUGAGGAUCACCCAUGUGAUACCAGUCAAAUAAAAGACCCUUGGCAGCACACAUGACAUGAGGAUCACCCAUGUA [AstrosSSTheA#1],59.8 nM
15,UUUGAUAGGACAGAUACCAGCGUGUUGUUGAACAUGAGGAUCACCCAUGUAGUGAUCGAGCGCCCUUGGCAGCUGGUUUGUUAGG [7.O],307 nM
16,AGUAGACACGCGGCCGCCACUUGAGGAUCACCCAAGUGGUGUGUACUUGAAACAAGUGCACAAUCAAGGACCGGGCGUGUCUACA [Omei Tryp B SS D v4],13 nM
17,AAACGUUGCUGCGAUACCAGACAUGAGGAUCACCCAUGUACCAAGGUAAAGAAAUAACGUGUCCCUUGGCAGCGCAGCAACGAAA [MAT - Exclusion Theophlline B - Mod of Eli - D12],10.6 nM
18,GUCCACAGCCGAAGGAGCGCUAGAAGAUGACAUGAGGAUCACCCAUGUGUGUGAUGUGGCUAGCAGGUAGGUCGCGGAGUGGAUU [Exclusion - Arginine B (Freestyle 14)],19.6 nM
19,AACAUGAGGAUCACCCAUGUCUGAACUGAAGGAGCGCUAAAUAAGGCAGGUAGGUCGCGGAAUUUUGUGUACAUAUGUAUAUGGG [9.H],23.8 nM
20,UCGCUCUGGGUGAGAUCCGGAGAUGUGGAAGGAGCGCUGGUUCCAGCAGGUAGGUCGCCAACGGACAUGAGGAUCACCCAUGUAC [Same State - Arginine A (Freestyle 13)],45.9 nM
21,UGAUUGAACGGAAGGAGCGUGAAGAGAGAGAAACAUGAGGAUCACCCAUGUAGAGAGAGAACACAGGUAGGUCGCCGAGAGAUUG [11.B],11.2 nM
22,UCACAUGAGGAUCACCCAUGUGUCAGAGAAGGAGCGGCCGCAAGGCCAGGUAGGUCGCUCGGGUAUUGUGAGGUUCACCCGUGUG [#1 Exclusion - Arginine A Attempt #12 (Inspired by cyborg)],34.6 nM
23,UUGUACGAAACUGAUACCAGCCAGCAAUGCCACCAAGAGCACAUGAGGAUCACCCAUGUUGGCCCUUGGCAGCAGGACAAUAAGC [theeternabot_exclusion_MS2_Theo_B_3],8.91 nM
24,UGUCCUCAUGCGGCCGCCACUGUCGGCCGCCACUAAACAUGAGGAUCACCCAUGUAGGACCGGGACAGGACCGGGCAUGGGUGCU [TryBS - #DoubleAptamer],319 nM
25,AUAAAUAAAACCGAUACCAGCCUUAUACAUGAGGAUCACCCAUGUUAUGCUUCCUUUUUUGGCCCUUGGCAGCGGAAAUGGGUAA [AstrosSSTheB#1],75.6 nM
26,CUCCCGUGGUCGGCCGCCACUGGAGGCUUUGCGCGACAUGAGGAUCACCCAUGUGUGCCCGGCGUCAGGACCGGGAUCGCGUGAG [#1 Same State - Tryptophan B Attempt #13 (HarryS)],11.5 nM
